Results from US20070025968A1, “Methods for selecting and producing T cell peptide epitopes and vaccines incorporating said selected epitopes” (priority 1996, published 2007).

Assays:
Settings in all cases: remark: other sources report otherwise
[1] = molecular target: HLA-A*0201 on mild-acid treated JY cells (human)
[2] = molecular target: HLA-A*0201 on mild-acid treated JY cells (human); experiment: competition vs FL-reference peptide, JY cells, 26°C 24 hr
[3] = molecular target: HLA-A*0201 on mild-acid treated JY cells (human); experiment: competition vs FL-reference peptide, JY cells, 26°C 3 hr
[4] = molecular target: HLA-A*0201 on mild-acid treated JY cells (human); experiment: competition vs FL-reference peptide, JY cells
[5] = molecular target: HLA-A*0201 on mild-acid treated JY cells (human); experiment: competition vs FL-reference peptide, JY cells, 4°C 24 hr

Row | Binder | IC50 [4] [nM] | further results
1 | PLEEELPRL [HBV Pol 594-602] | – | HLA molecules detectable after 2 hr at 37°C (NS = non stable) [1]: < 10%
2 | TLGIVCPI [HPV16 E7 86-93] | 700 | IC50 [2]: 3100 nM; IC50 [3]: 6500 nM; IC50 [5]: 700 nM
3 | WLSLLVPFV [HBV surface 335] | 1000 | –
4 | DLMGYIPLV [HCVcore-132] | 5000 | –
5 | FLPSDFFPSV [hepatitis B nucleocapsid peptide …] | 400 | –
